Kd data for 1 substance are collected here from article PMC3656037.

In the series the test system is Sau-PolC-ΔNΔExo (Staphylococcus aureus). In words: active site titration (pre-steady-state burst amplitude vs DNA, quadratic fit). Particulars: Reaction buffer, salt, pH and temperature not given in the material; DNA annealed in 10 mM Tris-HCl pH 8, 1 mM EDTA, 100 mM NaCl; protein stored in 50 mM ….

For the substance primer/template (p/t) DNA, the Kd – broadly, the constant that tells how readily two partners part at equilibrium – is 390 nM.
